Experimental data as given in IntAct's records for PubMed 19318624.

B1: Glycogen accumulation regulator GarA (Mycobacterium tuberculosis (strain ATCC 25618 / P9WJA9 (parent)
chain: MTDMNPDIEKDQTSDEVTVETTSVFRADFLSELDAPAQAGTESAVSGVEGLPPGSALLVVKRGPNAGSRFLLDQAITSAGRHPDSDIFLDDVTVSRRHAEFRLENNEFNVVDVGSLNGTYVNREPVDSAVLANGDEVQIGKFRLVFLTGPKQGEDDGSTGGP
partner: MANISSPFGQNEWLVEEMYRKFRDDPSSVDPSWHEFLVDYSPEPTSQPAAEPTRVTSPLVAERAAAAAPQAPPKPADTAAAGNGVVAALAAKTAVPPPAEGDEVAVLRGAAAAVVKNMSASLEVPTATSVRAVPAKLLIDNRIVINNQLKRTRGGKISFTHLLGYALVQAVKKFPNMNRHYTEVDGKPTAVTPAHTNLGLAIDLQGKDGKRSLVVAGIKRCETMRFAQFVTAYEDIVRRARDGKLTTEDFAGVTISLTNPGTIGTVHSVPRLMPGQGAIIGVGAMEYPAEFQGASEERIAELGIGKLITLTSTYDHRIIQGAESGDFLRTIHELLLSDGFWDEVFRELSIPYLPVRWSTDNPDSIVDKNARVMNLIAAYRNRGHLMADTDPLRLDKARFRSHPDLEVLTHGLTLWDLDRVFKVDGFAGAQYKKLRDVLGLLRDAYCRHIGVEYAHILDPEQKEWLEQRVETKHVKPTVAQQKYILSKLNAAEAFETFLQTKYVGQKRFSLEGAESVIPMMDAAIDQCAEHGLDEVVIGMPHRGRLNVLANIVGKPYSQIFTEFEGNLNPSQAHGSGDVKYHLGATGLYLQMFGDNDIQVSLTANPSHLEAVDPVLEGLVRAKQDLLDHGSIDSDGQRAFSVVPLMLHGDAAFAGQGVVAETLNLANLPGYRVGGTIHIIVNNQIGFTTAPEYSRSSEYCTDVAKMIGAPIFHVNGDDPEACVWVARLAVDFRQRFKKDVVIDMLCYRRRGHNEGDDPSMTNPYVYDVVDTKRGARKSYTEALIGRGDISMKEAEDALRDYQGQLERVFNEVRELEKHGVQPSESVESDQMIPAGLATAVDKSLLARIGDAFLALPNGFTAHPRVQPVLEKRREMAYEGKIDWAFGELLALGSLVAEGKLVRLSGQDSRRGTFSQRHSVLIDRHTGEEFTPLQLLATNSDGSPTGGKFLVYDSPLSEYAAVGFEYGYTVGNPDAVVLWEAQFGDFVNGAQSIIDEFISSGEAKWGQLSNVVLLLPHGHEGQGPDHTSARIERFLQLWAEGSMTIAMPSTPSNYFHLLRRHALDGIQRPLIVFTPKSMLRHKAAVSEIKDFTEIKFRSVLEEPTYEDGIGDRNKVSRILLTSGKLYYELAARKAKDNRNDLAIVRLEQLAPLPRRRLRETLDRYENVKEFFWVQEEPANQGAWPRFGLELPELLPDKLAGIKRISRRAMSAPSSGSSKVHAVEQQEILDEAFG
B2: Glycogen accumulation regulator GarA (Mycobacterium tuberculosis (strain ATCC 25618 / P9WJA9 (parent)
chain: B1 chain

Variants of: B1
Conditions: with kgd_myctu kgd

| Variant | effect of a mutation on the interaction |
| --- | --- |
| MTDMNPDIEKDQTSDEVTVETTSVFRADFLSELDAPAQAGTESAVSGVEGLPPGSALLVVKRGPNAGSRFLLDQAITSAGRHPDSDIFLDDVTVSRRHAEFRLENNEFNVVDVGSLAGTYVNREPVDSAVLANGDEVQIGKFRLVFLTGPKQGEDDGSTGGP [N117A] | disrupting interaction |
| MTDMNPDIEKDQTSDEVTVETTSVFRADFLSELDAPAQAGTESAVSGVEGLPPGSALLVVKRGPNAGSRFLLDQAITSAGRHPDSDIFLDDVTVSRRHAEFRLENNEFNVVDVGSLNGTYVNREPVDSAVLANGDEVQIGKFELVFLTGPKQGEDDGSTGGP [R143E] | disrupting interaction |
| MTDMNPDIEKDQTSDEVTVETTSVFRADFLSELDAPAQAGTESAVSGVEGLPPGSALLVVKRGPNAGSRFLLDQAITSAGRHPDSDIFLDDVTVSRRHAEFRLENNEFNVVDVGSLNGTYVNREPVDSAVLANGDEVQIGEFRLVFLTGPKQGEDDGSTGGP [K141E] | disrupting interaction |

Variants of: B2
Conditions: with dhe2_myctu gdh

| Variant | effect of a mutation on the interaction |
| --- | --- |
| MTDMNPDIEKDQTSDEVTVETTSVFRADFLSELDAPAQAGTESAVSGVEGLPPGSALLVVKRGPNAGSRFLLDQAITSAGRHPDSDIFLDDVTVSRRHAEFRLENNEFNVVDVGSLNGTYVNREPVDSAVLANGDEVQIGKFELVFLTGPKQGEDDGSTGGP [R143E] | disrupting interaction |
| MTDMNPDIEKDQTSDEVTVETTSVFRADFLSELDAPAQAGTESAVSGVEGLPPGSALLVVKRGPNAGSRFLLDQAITSAGRHPDSDIFLDDVTVSRRHAEFRLENNEFNVVDVGSLNGTYVNREPVDSAVLANGDEVQIGEFRLVFLTGPKQGEDDGSTGGP [K141E] | disrupting interaction |
| MTDMNPDIEKDQTSDEVTVETTSVFRADFLSELDAPAQAGTESAVSGVEGLPPGSALLVVKRGPNAGSRFLLDQAITSAGRHPDSDIFLDDVTVARRHAEFRLENNEFNVVDVGSLNGTYVNREPVDSAVLANGDEVQIGKFRLVFLTGPKQGEDDGSTGGP [S95A] | decreasing interaction |

Variants of: B2
Conditions: with gltb_myctu gltB

| Variant | effect of a mutation on the interaction |
| --- | --- |
| MTDMNPDIEKDQTSDEVTVETTSVFRADFLSELDAPAQAGTESAVSGVEGLPPGSALLVVKRGPNAGSRFLLDQAITSAGRHPDSDIFLDDVTVSRRHAEFRLENNEFNVVDVGSLAGTYVNREPVDSAVLANGDEVQIGKFRLVFLTGPKQGEDDGSTGGP [N117A] | disrupting interaction |
| MTDMNPDIEKDQTSDEVTVETTSVFRADFLSELDAPAQAGTESAVSGVEGLPPGSALLVVKRGPNAGSRFLLDQAITSAGRHPDSDIFLDDVTVSRRHAEFRLENNEFNVVDVGSLNGTYVNREPVDSAVLANGDEVQIGEFRLVFLTGPKQGEDDGSTGGP [K141E] | disrupting interaction |
| MTDMNPDIEKDQTSDEVTVETTSVFRADFLSELDAPAQAGTESAVSGVEGLPPGSALLVVKRGPNAGSRFLLDQAITSAGRHPDSDIFLDDVTVARRHAEFRLENNEFNVVDVGSLNGTYVNREPVDSAVLANGDEVQIGKFRLVFLTGPKQGEDDGSTGGP [S95A] | disrupting interaction |

Variants of: B2
Conditions: with dhe2_myctu gdh
Remark: another data set of the same source

| Variant | effect of a mutation on the interaction |
| --- | --- |
| MTDMNPDIEKDQTSDEVTVETTSVFRADFLSELDAPAQAGTESAVSGVEGLPPGSALLVVKRGPNAGSRFLLDQAITSAGRHPDSDIFLDDVTVSRRHAEFRLENNEFNVVDVGSLAGTYVNREPVDSAVLANGDEVQIGKFRLVFLTGPKQGEDDGSTGGP [N117A] | decreasing interaction |
